Results as given in patent publication US20100310591A1 (published 2010).
Non-standard residues stand in square brackets, D forms with d. Ava = NCCCCC(=O)O

Target: murine class II MHC allele E^k on CH27 B cell lymphoma antigen presenting cells (murine)
Experiment: cell-based or functional assay

| T cell proliferative response (HT-2 [3H]TdR uptake) at 0.01 nM | T cell proliferative response (HT-2 [3H]TdR uptake) at 0.05 nM | T cell proliferative response (HT-2 [3H]TdR uptake) at 0.18 nM | T cell proliferative response (HT-2 [3H]TdR uptake) at 0.73 nM | T cell proliferative response (HT-2 [3H]TdR uptake) at 3 nM | T cell proliferative response (HT-2 [3H]TdR uptake) at 12 nM | T cell proliferative response (HT-2 [3H]TdR uptake) at 47 nM | T cell proliferative response (HT-2 [3H]TdR uptake) at 188 nM | T cell proliferative response (HT-2 [3H]TdR uptake) at 750 nM | T cell proliferative response (HT-2 [3H]TdR uptake) at 3000 nM | Binder |
| --- | --- | --- | --- | --- | --- | --- | --- | --- | --- | --- |
| 2.5 thousands of cpm | 5.8 thousands of cpm | 9.1 thousands of cpm | 19.2 thousands of cpm | 19 thousands of cpm | 23.1 thousands of cpm | 19.5 thousands of cpm | 20.8 thousands of cpm | 23.3 thousands of cpm | 25.2 thousands of cpm | Ac-LRMKLPKSIAYLKQATAK-NH2 [Hybrid 4, Ac-LRMKLPKSIAYLKQATAK-NH2] |
| 0.6 thousands of cpm | 5.3 thousands of cpm | 21.6 thousands of cpm | 22.3 thousands of cpm | 27.9 thousands of cpm | 29.5 thousands of cpm | 26.2 thousands of cpm | 26.2 thousands of cpm | 31.7 thousands of cpm | 31.9 thousands of cpm | Ac-LRMK[Ava][Ava]IAYLKQATAK-NH2 (SMILES CC[C@H](C)[C@H](NC(=O)CCCCNC(=O)CCCCNC(=O)[C@H](CCCCN)NC(=O)[C@H](CCSC)NC(=O)[C@H](CCCNC(=N)N)NC(=O)[C@H](CC(C)C)NC(C)=O)C(=O)N[C@@H](C)C(=O)N[C@@H](Cc1ccc(O)cc1)C(=O)N[C@@H](CC(C)C)C(=O)N[C@@H](CCCCN)C(=O)N[C@@H](CCC(N)=O)C(=O)N[C@@H](C)C(=O)N[C@H](C(=O)N[C@@H](C)C(=O)N[C@@H](CCCCN)C(N)=O)[C@@H](C)O) [Hybrid 3, Ac-LRMK-ava-ava-IAYLKQATAK-NH2] |
| 2.9 thousands of cpm | 2.4 thousands of cpm | 11.9 thousands of cpm | 28.7 thousands of cpm | 31.4 thousands of cpm | 39.2 thousands of cpm | 25.3 thousands of cpm | 26.9 thousands of cpm | 23.4 thousands of cpm | 21.5 thousands of cpm | Ac-LRMKLPKSAKPVSKIAYLKQATAK-NH2 [Hybrid 6, Ac-LRMKLPKSAKPVSKIAYLKQATAK-NH2] |
| 14.3 thousands of cpm | 21.3 thousands of cpm | 36.7 thousands of cpm | 30.1 thousands of cpm | 31.4 thousands of cpm | 44.6 thousands of cpm | 26.2 thousands of cpm | 29.1 thousands of cpm | 27.5 thousands of cpm | 27.3 thousands of cpm | Ac-LRMKLPKSAKPIAYLKQATAK-NH2 [Hybrid 5, Ac-LRMKLPKSAKPIAYLKQATAK-NH2] |
| 0 thousands of cpm | 0 thousands of cpm | 0 thousands of cpm | 4 thousands of cpm | 0.4 thousands of cpm | 10.9 thousands of cpm | 29.5 thousands of cpm | 32.4 thousands of cpm | 27.8 thousands of cpm | 25.2 thousands of cpm | Ac-IAYLKQATAK-NH2 [Hybrid 1, Ac-IAYLKQATAK-NH2 (antigenic epitope PGCC 95-104 without Ii-Key)] |
| 3.4 thousands of cpm | 19.8 thousands of cpm | 31.2 thousands of cpm | 38.8 thousands of cpm | 30.1 thousands of cpm | 21.9 thousands of cpm | 20.8 thousands of cpm | 27.2 thousands of cpm | 23.9 thousands of cpm | 25.1 thousands of cpm | Ac-LRMK[Ava]IAYLKQATAK-NH2 (SMILES CC[C@H](C)[C@H](NC(=O)CCCCNC(=O)[C@H](CCCCN)NC(=O)[C@H](CCSC)NC(=O)[C@H](CCCNC(=N)N)NC(=O)[C@H](CC(C)C)NC(C)=O)C(=O)N[C@@H](C)C(=O)N[C@@H](Cc1ccc(O)cc1)C(=O)N[C@@H](CC(C)C)C(=O)N[C@@H](CCCCN)C(=O)N[C@@H](CCC(N)=O)C(=O)N[C@@H](C)C(=O)N[C@H](C(=O)N[C@@H](C)C(=O)N[C@@H](CCCCN)C(N)=O)[C@@H](C)O) [Hybrid 2, Ac-LRMK-ava-IAYLKQATAK-NH2] |
